For 1 substance, half-time of dissociation from the membrane in the dark and half-time of dissociation in the dark results are on record in article PMC11507749.

The target of the assay is iLID-YFP-SNAP (2×Strep-iLID-EYFP-SNAP). Kind of assay: light-induced membrane recruitment in GUVs.

The substance mCherry-SspB(micro) had a half-time of dissociation from the membrane in the dark of 61.2 s and a half-time of dissociation in the dark of 41.8 s.
